B1: CPEB3 Ribozyme (parent)
chain: UAACAGGGGGCCACAGCAGAAGCGUUCACGUCGCAGCCCCUGUCAGAUUCUGGUGAAUCUGCGAAUUCUGCUGUAUAUCUC

Variants of: B1
Experiment: self-cleavage, relative activity (ratio to wild type); higher = more cleavage; in vitro, sequencing
Outline: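 Libraries of CPEB3 self-cleaving ribozyme mutants came from rounds of error-prone PCR and carried barcodes, which DNA sequencing matched to variants. In vitro transcription used T7 RNA polymerase at 37°C for 5 hours, with a further 15 min in DNase I before EDTA stopped the reaction; the ribozymes cleaved during both steps. The RNA was reverse transcribed with template switching and sequenced on Illumina. Relative activity is the cleaved/total read fraction of a variant divided by that of the unmutated ribozyme, averaged over three batches with at least 5 reads.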

Row | Variant | self-cleavage
1 | G36A G42U | 0.13
2 | G36A G55A | 0.09
3 | G36A G61C | 0.16
4 | G36A U41A | 0.18
5 | G36A U41C | 0.56
6 | G36A U43C | 0.29
7 | G36A U48C | 0.19
8 | G36A U49C | 0.21
9 | G36A U51A | 0.4
10 | G36A U51C | 0.2
11 | G36A U51G | 0.19
12 | G36A U54A | 0.31
13 | G36A U54C | 0.25
14 | G36A U58A | 0.13
15 | G36A U58C | 0.27
16 | G36A U58G | 0.19
17 | G36A U60A | 0.18
18 | G36A U60C | 0.13
19 | G36A U66C | 0.33
20 | G36A U67C | 0.13
21 | G36A U69A | 0.32
22 | G36A U69C | 0.27
23 | G36A U72A | 0.26
24 | G36A U72C | 0.25

Row | Variant | self-cleavage
25 | G36A U76C | 0.28
26 | G36A U76G | 0.4
27 | G36A U78C | 0.23
28 | G36A U80A | 0.13
29 | G36A U80C | 0.34
30 | G36C | 0.31
31 | G36C A45G | 0.17
32 | G36C A45U | 0.14
33 | G36C A47C | 0.13
34 | G36C A47G | 0.15
35 | G36C A56G | 0.21
36 | G36C A56U | 0.13
37 | G36C A57U | 0.13
38 | G36C A64G | 0.16
39 | G36C A65G | 0.13
40 | G36C A77G | 0.29
41 | G36C C38A | 0.16
42 | G36C C38U | 0.27
43 | G36C C62U | 0.15
44 | G36C G55A | 0.12
45 | G36C G61C | 0.14
46 | G36C G61U | 0.12
47 | G36C U43C | 0.28
48 | G36C U48C | 0.4

Row | Variant | self-cleavage
49 | G36C U49A | 0.17
50 | G36C U51A | 0.16
51 | G36C U51C | 0.39
52 | G36C U58C | 0.14
53 | G36C U60A | 0.08
54 | G36C U60C | 0.13
55 | G36C U66C | 0.23
56 | G36C U67C | 0.18
57 | G36C U69C | 0.11
58 | G36C U72G | 0.19
59 | G36C U74C | 0.2
60 | G36C U78C | 0.14
61 | G36C U80A | 0.12
62 | G36C U80C | 0.13
63 | G36U | 0.24
64 | G36U A45G | 0.22
65 | G36U A45U | 0.19
66 | G36U A47G | 0.11
67 | G36U A47U | 0.08
68 | G36U A57G | 0.48
69 | G36U A65G | 0.39
70 | G36U A65U | 0.06
71 | G36U A75G | 0.11
72 | G36U A77G | 0.12

Row | Variant | self-cleavage
73 | G36U A77U | 0.19
74 | G36U C37U | 0.1
75 | G36U C59U | 0.16
76 | G36U C71U | 0.1
77 | G36U G42A | 0.21
78 | G36U G61U | 0.13
79 | G36U G63A | 0.12
80 | G36U G63U | 0.12
81 | G36U G73A | 0.37
82 | G36U U41A | 0.29
83 | G36U U41C | 0.3
84 | G36U U48C | 0.17
85 | G36U U51G | 0.15
86 | G36U U54C | 0.26
87 | G36U U58C | 0.53
88 | G36U U60C | 0.11
89 | G36U U67A | 0.64
90 | G36U U69A | 0.2
91 | G36U U69C | 0.15
92 | G36U U72C | 0.13
93 | G36U U74C | 0.31
94 | G36U U76A | 0.2
95 | G36U U76C | 0.2
96 | G36U U78A | 0.43

Row | Variant | self-cleavage
97 | G36U U78C | 0.17
98 | G36U U80A | 0.29
99 | G36U U80C | 0.46
100 | C37A | 0.28
101 | C37A A45C | 0.1
102 | C37A A45G | 0.26
103 | C37A A45U | 0.23
104 | C37A A57G | 0.2
105 | C37A A64G | 0.25
106 | C37A A65G | 0.16
107 | C37A A65U | 0.36
108 | C37A A75G | 0.19
109 | C37A A77G | 0.18
110 | C37A A77U | 0.28
111 | C37A C38A | 0.27
112 | C37A C39A | 0.29
113 | C37A C59U | 0.24
114 | C37A C68U | 0.09
115 | C37A C71U | 0.2
116 | C37A G52U | 0.35
117 | C37A G73C | 0.38
118 | C37A U41A | 0.19
119 | C37A U41C | 0.25
120 | C37A U43A | 0.14

Row | Variant | self-cleavage
121 | C37A U43C | 0.43
122 | C37A U48A | 0.12
123 | C37A U48C | 0.41
124 | C37A U49A | 0.13
125 | C37A U49C | 0.11
126 | C37A U51C | 0.17
127 | C37A U54G | 0.2
128 | C37A U60A | 0.14
129 | C37A U60C | 0.09
130 | C37A U67A | 0.14
131 | C37A U67C | 0.13
132 | C37A U67G | 0.17
133 | C37A U69A | 0.12
134 | C37A U72C | 0.33
135 | C37A U74C | 0.17
136 | C37A U76C | 0.35
137 | C37A U78A | 0.2
138 | C37A U78C | 0.35
139 | C37G | 0.8
140 | C37G A45G | 0.7
141 | C37G A45U | 0.13
142 | C37G A47G | 0.58
143 | C37G A57G | 0.44
144 | C37G A64G | 0.54

Row | Variant | self-cleavage
145 | C37G A64U | 0.22
146 | C37G A75U | 1.13
147 | C37G A77U | 0.61
148 | C37G C40A | 0.29
149 | C37G C44A | 0.39
150 | C37G C59G | 0.13
151 | C37G C62G | 0.5
152 | C37G C68A | 0.18
153 | C37G G42U | 0.29
154 | C37G G70C | 0.2
155 | C37G U43C | 0.29
156 | C37G U48C | 0.45
157 | C37G U49C | 0.38
158 | C37G U51G | 0.78
159 | C37G U67A | 0.48
160 | C37G U69A | 0.19
161 | C37G U69C | 0.23
162 | C37G U72A | 0.92
163 | C37G U72C | 1.14
164 | C37G U74A | 1.13
165 | C37G U74C | 0.9
166 | C37G U78C | 0.68
167 | C37G U80A | 1.18

Source: the RNAGym collection of RNA variant scans (doi:10.1093/nar/gkz1192)
